Data from article PMC12908882 (Molecular cancer therapeutics, 2026).

Key:
[1] = target: Human L1CAM expressed on transfected HEK293T cells (HEK293T-L1CAM cells) (Homo sapiens, UniProt P32004); assay: flow cytometry on cells
[2] = target: Human L1CAM fibronectin-like type III (FNIII) repeats, residues 606-1116, C-terminal 6x His tag (Homo sapiens, UniProt P32004); assay: BLI
[3] = target: Extracellular domain of human L1CAM fused to a poly-histidine tag (L1CAM-His) (Homo sapiens, UniProt P32004); assay: BLI
Chain of Extracellular domain of human L1CAM fused to a poly-histidine tag (L1CAM-His) (P32004 20-1120): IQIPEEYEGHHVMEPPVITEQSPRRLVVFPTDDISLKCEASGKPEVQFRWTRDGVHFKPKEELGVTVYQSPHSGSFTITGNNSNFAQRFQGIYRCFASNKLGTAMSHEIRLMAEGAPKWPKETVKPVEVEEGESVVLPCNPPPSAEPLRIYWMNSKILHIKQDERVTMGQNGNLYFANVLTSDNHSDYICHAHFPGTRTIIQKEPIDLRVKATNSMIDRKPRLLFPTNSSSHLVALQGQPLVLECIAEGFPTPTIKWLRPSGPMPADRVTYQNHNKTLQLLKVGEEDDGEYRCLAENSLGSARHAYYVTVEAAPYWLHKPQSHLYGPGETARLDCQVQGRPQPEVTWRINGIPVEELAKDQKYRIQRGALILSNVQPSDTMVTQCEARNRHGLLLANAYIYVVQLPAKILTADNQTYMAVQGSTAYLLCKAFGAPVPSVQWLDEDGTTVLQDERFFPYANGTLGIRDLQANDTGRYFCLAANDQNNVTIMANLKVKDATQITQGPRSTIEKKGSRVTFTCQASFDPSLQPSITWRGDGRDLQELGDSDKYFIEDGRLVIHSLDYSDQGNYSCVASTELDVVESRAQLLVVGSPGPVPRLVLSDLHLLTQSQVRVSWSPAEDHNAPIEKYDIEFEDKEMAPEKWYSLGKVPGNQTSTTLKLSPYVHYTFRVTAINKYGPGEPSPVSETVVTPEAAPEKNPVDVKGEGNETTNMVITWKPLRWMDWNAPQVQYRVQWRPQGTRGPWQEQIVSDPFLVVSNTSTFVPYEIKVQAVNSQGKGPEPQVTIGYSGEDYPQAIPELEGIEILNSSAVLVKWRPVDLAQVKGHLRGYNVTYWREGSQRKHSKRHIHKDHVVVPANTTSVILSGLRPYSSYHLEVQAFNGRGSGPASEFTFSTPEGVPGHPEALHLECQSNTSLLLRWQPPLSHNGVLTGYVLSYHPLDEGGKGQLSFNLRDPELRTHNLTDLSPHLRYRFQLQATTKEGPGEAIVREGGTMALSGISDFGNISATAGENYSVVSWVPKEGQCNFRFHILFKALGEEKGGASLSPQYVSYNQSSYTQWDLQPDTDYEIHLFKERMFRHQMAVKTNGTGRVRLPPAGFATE

[4] = target: Human L1CAM Ig-like domains, residues 21-605, C-terminal 6x His tag (Homo sapiens, UniProt P32004); assay: BLI
Chain of Human L1CAM Ig-like domains, residues 21-605, C-terminal 6x His tag (P32004 21-605): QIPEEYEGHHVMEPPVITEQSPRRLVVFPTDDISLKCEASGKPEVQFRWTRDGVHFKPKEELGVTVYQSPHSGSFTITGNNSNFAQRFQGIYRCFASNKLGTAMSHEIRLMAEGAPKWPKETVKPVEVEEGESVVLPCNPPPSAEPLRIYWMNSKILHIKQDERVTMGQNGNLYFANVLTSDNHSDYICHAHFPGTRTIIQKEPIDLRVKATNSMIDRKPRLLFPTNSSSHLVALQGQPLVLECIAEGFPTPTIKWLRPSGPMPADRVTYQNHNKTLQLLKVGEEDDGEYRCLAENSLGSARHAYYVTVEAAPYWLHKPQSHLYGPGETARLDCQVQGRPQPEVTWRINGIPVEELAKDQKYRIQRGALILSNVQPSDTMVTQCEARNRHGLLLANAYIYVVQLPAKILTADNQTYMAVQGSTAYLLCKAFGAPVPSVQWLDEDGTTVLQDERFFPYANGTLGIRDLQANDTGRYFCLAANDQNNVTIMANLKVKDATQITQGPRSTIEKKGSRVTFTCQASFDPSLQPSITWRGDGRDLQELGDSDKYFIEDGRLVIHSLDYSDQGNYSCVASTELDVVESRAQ

[5] = target: His-tagged, monomeric mouse L1CAM protein (Mus musculus, UniProt P11627); assay: BLI
Chain of His-tagged, monomeric mouse L1CAM protein (P11627 whole entry, looked up, tested part not stated): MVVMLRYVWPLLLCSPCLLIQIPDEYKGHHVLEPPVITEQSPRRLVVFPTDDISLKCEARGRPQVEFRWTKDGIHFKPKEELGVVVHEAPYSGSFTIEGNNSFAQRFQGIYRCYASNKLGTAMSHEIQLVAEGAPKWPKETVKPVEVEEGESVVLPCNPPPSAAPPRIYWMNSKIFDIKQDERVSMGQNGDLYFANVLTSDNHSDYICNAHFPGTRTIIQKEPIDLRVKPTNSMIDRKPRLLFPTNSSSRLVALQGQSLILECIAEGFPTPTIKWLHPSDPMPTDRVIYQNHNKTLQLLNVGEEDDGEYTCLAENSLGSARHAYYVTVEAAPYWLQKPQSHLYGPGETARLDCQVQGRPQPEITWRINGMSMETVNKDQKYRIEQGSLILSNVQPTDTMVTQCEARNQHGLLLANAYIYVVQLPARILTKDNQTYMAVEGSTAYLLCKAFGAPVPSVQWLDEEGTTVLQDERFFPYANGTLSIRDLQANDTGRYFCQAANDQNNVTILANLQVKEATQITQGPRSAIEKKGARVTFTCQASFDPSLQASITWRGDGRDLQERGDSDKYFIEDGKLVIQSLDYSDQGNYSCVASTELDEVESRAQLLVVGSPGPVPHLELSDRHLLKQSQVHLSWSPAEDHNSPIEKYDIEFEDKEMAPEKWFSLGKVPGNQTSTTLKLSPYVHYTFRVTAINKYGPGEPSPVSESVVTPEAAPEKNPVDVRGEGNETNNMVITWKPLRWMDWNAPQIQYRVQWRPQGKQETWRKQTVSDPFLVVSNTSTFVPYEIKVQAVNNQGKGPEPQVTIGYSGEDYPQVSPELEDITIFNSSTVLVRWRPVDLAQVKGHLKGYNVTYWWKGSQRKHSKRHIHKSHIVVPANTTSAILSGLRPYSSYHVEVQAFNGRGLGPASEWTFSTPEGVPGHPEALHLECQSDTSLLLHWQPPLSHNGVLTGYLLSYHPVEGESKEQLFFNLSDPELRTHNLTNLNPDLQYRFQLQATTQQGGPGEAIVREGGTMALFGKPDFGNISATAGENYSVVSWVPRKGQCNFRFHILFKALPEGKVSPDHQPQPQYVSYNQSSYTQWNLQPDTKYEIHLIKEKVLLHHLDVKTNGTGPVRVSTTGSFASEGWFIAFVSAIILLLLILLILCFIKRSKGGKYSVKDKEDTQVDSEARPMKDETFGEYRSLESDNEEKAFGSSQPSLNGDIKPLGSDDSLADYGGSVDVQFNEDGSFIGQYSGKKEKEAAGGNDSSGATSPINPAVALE

Measured: binding result

Chain of Human L1CAM expressed on transfected HEK293T cells (HEK293T-L1CAM cells) (P32004 20-1257): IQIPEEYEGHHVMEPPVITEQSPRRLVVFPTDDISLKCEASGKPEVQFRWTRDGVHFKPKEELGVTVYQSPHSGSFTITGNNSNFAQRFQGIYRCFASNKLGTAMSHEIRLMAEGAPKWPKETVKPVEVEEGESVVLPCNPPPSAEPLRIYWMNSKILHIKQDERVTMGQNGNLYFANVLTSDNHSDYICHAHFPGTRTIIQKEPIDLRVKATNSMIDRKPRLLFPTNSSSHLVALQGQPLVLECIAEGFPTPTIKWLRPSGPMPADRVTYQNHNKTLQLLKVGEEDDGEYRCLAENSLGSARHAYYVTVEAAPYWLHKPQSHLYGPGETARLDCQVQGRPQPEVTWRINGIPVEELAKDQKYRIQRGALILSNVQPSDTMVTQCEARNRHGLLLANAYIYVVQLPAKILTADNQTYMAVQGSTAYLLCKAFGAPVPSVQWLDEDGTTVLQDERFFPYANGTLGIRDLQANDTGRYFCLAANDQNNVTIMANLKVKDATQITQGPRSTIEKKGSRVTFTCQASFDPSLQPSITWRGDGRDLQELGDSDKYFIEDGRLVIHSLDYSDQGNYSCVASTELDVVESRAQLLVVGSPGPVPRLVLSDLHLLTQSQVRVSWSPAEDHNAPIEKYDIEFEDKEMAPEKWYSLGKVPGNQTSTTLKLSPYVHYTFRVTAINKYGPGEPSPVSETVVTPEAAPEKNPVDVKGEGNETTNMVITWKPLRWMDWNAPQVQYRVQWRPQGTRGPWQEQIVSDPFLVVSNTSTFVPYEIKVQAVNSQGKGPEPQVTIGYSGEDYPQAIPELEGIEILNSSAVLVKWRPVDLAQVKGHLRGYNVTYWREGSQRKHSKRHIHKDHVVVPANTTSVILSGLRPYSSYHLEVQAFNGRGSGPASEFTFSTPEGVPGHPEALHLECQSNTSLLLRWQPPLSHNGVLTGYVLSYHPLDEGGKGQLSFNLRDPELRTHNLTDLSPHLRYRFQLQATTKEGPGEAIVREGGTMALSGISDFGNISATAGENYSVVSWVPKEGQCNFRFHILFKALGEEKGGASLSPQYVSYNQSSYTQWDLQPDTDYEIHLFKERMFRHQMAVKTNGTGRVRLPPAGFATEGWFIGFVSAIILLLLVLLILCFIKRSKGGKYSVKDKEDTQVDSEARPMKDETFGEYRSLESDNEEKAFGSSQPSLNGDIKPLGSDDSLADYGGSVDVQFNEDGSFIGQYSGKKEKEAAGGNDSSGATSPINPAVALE
Chain of Human L1CAM fibronectin-like type III (FNIII) repeats, residues 606-1116, C-terminal 6x His tag (P32004 606-1116): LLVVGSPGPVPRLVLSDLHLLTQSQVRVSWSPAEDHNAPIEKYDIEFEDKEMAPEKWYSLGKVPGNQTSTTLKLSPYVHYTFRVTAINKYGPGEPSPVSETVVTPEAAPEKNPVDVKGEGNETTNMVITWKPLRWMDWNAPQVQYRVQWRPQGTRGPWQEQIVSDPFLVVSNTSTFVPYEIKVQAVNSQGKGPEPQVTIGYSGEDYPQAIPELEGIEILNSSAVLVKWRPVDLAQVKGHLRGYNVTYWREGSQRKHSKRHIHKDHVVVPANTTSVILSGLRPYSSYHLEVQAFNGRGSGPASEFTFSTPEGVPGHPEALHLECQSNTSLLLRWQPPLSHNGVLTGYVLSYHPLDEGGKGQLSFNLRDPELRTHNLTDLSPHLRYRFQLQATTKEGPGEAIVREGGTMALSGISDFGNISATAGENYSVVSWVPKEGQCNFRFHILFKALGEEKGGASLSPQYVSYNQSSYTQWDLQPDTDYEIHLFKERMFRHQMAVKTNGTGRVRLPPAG

B1: 143G03 monoclonal antibody to human L1CAM (antibody, V domains shown)
VH: QVQLVQSGAEVKKPGSSVKVSCKASGYTFTNYYIHWVRQAPGQGLEWMGKIGPGSGSPYYQGMFKDRVTITADESTSTAYMELSSLRSEDTAVYYCARWLLPFDYWGQGTLVTVSS
VL: EIVLTQSPGTLSLSPGERATLSCRASSSVNYMHWYQQKPGQAPRLLIYATSILASGIPDRFSGSGSGTDYTLTISRLEPEDFAVYYCQQFSSDPLTFGGGTKVEIK
binds: [1] | [2] | [3]

B2: 14A10 monoclonal antibody to human L1CAM (antibody, V domains shown)
VH: EVQMVESGGGLVQPGGSLRLSCAAPGFIFSSYNMNWVRQAPGKGLEWVSYISSSSSTTYYADSVKGRFTISRDNAKNSLYLQMNSLRDEDTAVYYCASLYSGYDYYYYYGMDVWGQGTTVTVSS
VL: DIVMTQTPLSSPVSLGQPASISCRSSQSLVHSDGNTYLSWLQQRPGQPPRVLIYKISKRFSGVPDRFSGSGAGTDFTLKISRVEAEDVGVYYCMQATQFPFTFGPGTKVDIK
binds: [1] | [4] | [5] | [3]

B3: 13F04 monoclonal antibody to human L1CAM (antibody, V domains shown)
VH: QVQLQQPGAELVKPGASVKLSCKASGYIFISYWMHWVKQRPGQGLEWIGEINPRNGRTNYNEKFKSKATLTVDKSSSTAYMQLTSLTSEDSAVYYCARGGDYGGSFDYWGQGTTLTVSS
VL: DIVLTQSPASLAVSLGQRATISCRASESVDSYGNSFMHWYQQKPGQPPKLLIYRASNLESGIPARFSGSGSRTDFTLTVNPVEADDVATYYCQQSNEDPWTFGGGTKLEIK
binds: [1] | [4]
